Assay results: patent US20240075137A1 (COMPUGEN, published 2024)

Legend:
cyno TIGIT on cells [1] = biological target: T1, cyno TIGIT on cells (cynomolgus macaque); test: FACS titration on cyno TIGIT OE Expi293 cells, binding site concentration; ± 95% CI; 'Fit: Good'; panel of the lower row
T1 construct: whole, on cells; also called Expi293 cyno TIGIT over-expressing cells
Procedure: (§1) AF647-labeled goat anti-human F(ab′) (Jackson Immunoresearch) was added to the cells to detect binding of anti-TIGIT antibodies. The gMFI of the anti-TIGIT antibodies bound to the cyno TIGIT over-expressing Expi293 cells (black line), and the parental Expi293 cells (grey line) are shown.

[2] = biological target: T2, human TIGIT ECD with C-terminal polyhistidine tag (human, UniProt Q495A1 22-141); test: KinExA equilibrium, His-tagged human TIGIT, n = 2
T2 construct: in-house or Sino Biological; also called hTIGIT-HIS; human TIGIT-HIS
T2 sequence: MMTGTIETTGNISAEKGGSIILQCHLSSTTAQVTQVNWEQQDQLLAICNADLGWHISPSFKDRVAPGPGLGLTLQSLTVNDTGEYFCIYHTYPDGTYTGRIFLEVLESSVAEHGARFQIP
Procedure: (§2) KinExA equilibrium experiments were performed using a KinExA 3200 instrument (Sapidyne Instruments, Boise, ID, USA) at 22° C. Recombinant His-tagged human TIGIT was obtained from Sino Biologicals (Beijing, China) and reconstituted into 1×PBS. All antigen and antibody samples for KinExA analyses were prepared in degassed PBST buffer (PBS with 0.05% tween 20) with 100 ug/mL filtered BSA and 0.02% sodium azide. […] For each KinExA experiment, ˜20 lag of human TIGIT was diluted into 1 mL of 50 mM sodium carbonate, pH 9.2 which was added directly to 50 mg of azlactone beads (Ultralink Support, Thermo Scientific, Rockford, IL, USA) and rocked overnight at 4° C. After rocking, the beads were rinsed once with 1 M Tris buffer, pH 8.5, containing 10 mg/mL BSA and rocked for one hour at room temperature in the same buffer. Coupled beads were added to the bead reservoir in the KinExA instrument and diluted to ˜30 mL with 1×HBS-N (0.01 M Hepes, 0.15M NaCl, GE Healthcare) containing 0.02% sodium azide which was also the running buffer for the KinExA instrument. All antigen-coupled beads were used immediately after preparation.
(§3) The volume flowed through the bead pack for each equilibrated sample for all experiments ranged from 4 mL to 11 mL at a flow rate of 0.25 mL/min.

human TIGIT on cells [3] = biological target: T3, human TIGIT on cells (human, UniProt Q495A1 22-141); test: FACS blocking: Expi293 human TIGIT cells pre-incubated with mAb, then human PVR-m2aFc; lower gMFI = more blocking
T3 construct: also called Expi293 human TIGIT over-expressing cells
T3 sequence: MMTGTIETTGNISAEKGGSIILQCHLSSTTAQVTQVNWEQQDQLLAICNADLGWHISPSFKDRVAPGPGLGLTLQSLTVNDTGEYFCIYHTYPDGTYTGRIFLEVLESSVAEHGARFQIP

Mouse TIGIT-His = biological target: T4, Mouse TIGIT-His (mouse, UniProt P86176); test: SPR (ProteOn), mAb captured, mouse TIGIT monomer injected; BM26 as hIgG4
T4 construct: also called mouse TIGIT monomer (prepared in-house)
T4 sequence (soluble monomer with His tag, looked up): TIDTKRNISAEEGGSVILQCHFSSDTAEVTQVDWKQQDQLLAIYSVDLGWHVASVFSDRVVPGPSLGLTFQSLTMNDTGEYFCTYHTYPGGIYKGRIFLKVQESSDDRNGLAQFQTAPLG

[4] = biological target: T2, human TIGIT ECD with C-terminal …; test: SPR (ProteOn), mAb captured, human TIGIT injected; BM26 as hIgG4
human TIGIT on cells [5] = biological target: T3, human TIGIT on cells; test: FACS titration of AF647-labelled mAb on human effector memory CD8+ T cells, Donor 334
Cyno TIGIT-His [6] = biological target: T5, Cyno TIGIT-His; test: SPR (ProteOn), mAb captured, cyno TIGIT monomer injected; kd of this row held constant; BM26 as hIgG4
T5 construct: also called cyno TIGIT monomer (prepared in-house); C-terminal HIS-tagged cyno TIGIT ECD recombinant protein

cyno TIGIT on cells [7] = biological target: T1, cyno TIGIT on cells; test: FACS titration of AF647-labelled mAb on cyno effector memory CD8+ T cells, Cyno Donor 1; isotype gMFI subtracted
human TIGIT on cells [8] = biological target: T3, human TIGIT on cells; test: FACS titration of AF647-labelled mAb on human effector memory CD8+ T cells, Donor 321
human TIGIT on cells [9] = biological target: T3, human TIGIT on cells; test: FACS blocking of human PVR-m2aFc binding to human TIGIT OE Expi293 cells; binding site concentration; n=2
human TIGIT on cells [10] = biological target: T3, human TIGIT on cells; test: FACS titration on human TIGIT OE Expi293 cells, binding site concentration; ± 95% CI; 'Fit: Good/Excellent'; panel of the upper row
Procedure: (§4) AF647-labeled goat anti-human F(ab′) (Jackson Immunoresearch) was added to the cells to detect binding of anti-TIGIT antibodies.

cyno TIGIT on cells [11] = biological target: T1, cyno TIGIT on cells; test: FACS titration of AF647-labelled mAb on cyno effector memory CD8+ T cells, Cyno Donor 3; isotype gMFI subtracted
[12] = biological target: T2, human TIGIT ECD with C-terminal …; test: KinExA equilibrium, His-tagged human TIGIT, n = 1
Procedure: as §2, §3

Cyno TIGIT-His [13] = biological target: T5, Cyno TIGIT-His; test: SPR (ProteOn), Cyno TIGIT-His
human TIGIT on cells [14] = biological target: T3, human TIGIT on cells; test: FACS blocking of human PVR-m2aFc binding to human TIGIT OE Expi293 cells; binding site concentration; n=1
cyno TIGIT on cells [15] = biological target: T1, cyno TIGIT on cells; test: FACS titration on cyno TIGIT OE Expi293 cells, binding site concentration; ± 95% CI; 'Fit: Excellent'; panel of the upper row
Procedure: as §1

human TIGIT on cells [16] = biological target: T3, human TIGIT on cells; test: FACS titration on human TIGIT OE Expi293 cells, binding site concentration; ± 95% CI; 'Fit: Good/Excellent'; panel of the lower row
Procedure: as §4

human TIGIT on cells [17] = biological target: T3, human TIGIT on cells; test: FACS titration of AF647-labelled mAb on human effector memory CD8+ T cells, Donor 322
[18] = biological target: T2, human TIGIT ECD with C-terminal …; test: SPR (ProteOn), Human TIGIT-His
PVRIG Fc [19] = biological target: T6, PVRIG Fc (UniProt Q6DKI7 41-171, limits assumed, biotinylated (Example 5)); test: FACS blocking assay: binding of PVRIG Fc to HEK cells that endogenously express PVRL2, with the antibody titrated
T6 construct: also called biotinylated PVRIG Fc protein; PVRIG-Fc-fusion protein
T6 sequence (looked up): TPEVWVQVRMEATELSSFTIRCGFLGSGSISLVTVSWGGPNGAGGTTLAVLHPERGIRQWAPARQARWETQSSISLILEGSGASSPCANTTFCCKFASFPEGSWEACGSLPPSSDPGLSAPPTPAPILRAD
Procedure: (§5) Cells were washed twice in PBS for acquisition using a FACS Canto II. Data was analyzed using FlowJo, Excel (Microsoft), and Prism.

human PVRIG on cells [20] = biological target: T7, human PVRIG on cells (human, UniProt Q6DKI7 1-326); test: FACS KD, cell type 'Jurkat' (table beside the curve, column 'FACS KD (nM)')
T7 construct: whole, on cells; over-expressed on HEK cells or endogenous on Jurkat and CD8 T cells; also called hPVRIG; HEK hPVRIG cells
T7 sequence (looked up): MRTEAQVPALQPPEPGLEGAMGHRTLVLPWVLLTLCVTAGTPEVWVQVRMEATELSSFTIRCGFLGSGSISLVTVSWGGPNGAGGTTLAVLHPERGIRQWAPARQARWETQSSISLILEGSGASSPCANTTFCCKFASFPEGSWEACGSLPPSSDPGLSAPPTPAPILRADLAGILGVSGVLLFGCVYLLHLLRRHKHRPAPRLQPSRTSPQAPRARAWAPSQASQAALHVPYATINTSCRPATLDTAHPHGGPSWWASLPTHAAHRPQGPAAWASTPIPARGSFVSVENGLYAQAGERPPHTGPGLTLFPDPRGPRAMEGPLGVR

human PVRIG on cells [21] = biological target: T7, human PVRIG on cells; test: flow cytometry titration, HEK hPVRIG cells
Procedure: These cells were cultured in DMEM (Gibco)+10% fetal calf serum (Gibco)+glutamax (Gibco). For the HEK hPVRIG over-expressing cells, 0.5 ug/ml puromycin (Gibco) was also added to the media for positive selection. For FACS analysis, all cell lines were harvested in log phase growth and 50,000-100,000 cells per well were seeded in 96 well plates. […] The titration series was conducted as 3 fold serial dilutions. […] Data was acquired using a FACS Canto II (BD Biosciences), FACS LSR Fortessa X-20 (BD Biosciences), or IntelliCyt (IntelliCyt Corporation) and analyzed using FlowJo (Treestar) and Prism (Graphpad) software.

human PVRIG on cells [22] = biological target: T7, human PVRIG on cells; test: FACS competition: PVRL2 mFc binding to HEK hPVRIG cells
Procedure: Cells were washed twice in PBS for acquisition using a FACS Canto II. Data was analyzed using FlowJo, Excel and Prism.

human PVRIG on cells [23] = biological target: T7, human PVRIG on cells; test: FACS on Jurkat cells pre-incubated with Isotype (unconjugated)
Source text: (§6) Data was acquired using a FACS Canto II and analysed using FlowJo, Excel, and Prism.

PVRIG Fc [24] = biological target: T6, PVRIG Fc; test: FACS competition: biotinylated PVRIG Fc (33 nM) binding to HEK cells with endogenous PVRL2
Procedure: as §5

[25] = biological target: T8, cynomolgus PVRIG on cells (cynomolgus, UniProt A0A2K5WVV8 41-322); test: FACS KD, cell type 'HEK293 cPVRIG' (table beside the curve, column 'FACS KD (nM)')
T8 construct: whole, on cells; also called cPVRIG; expi cPVRIG cells
T8 sequence: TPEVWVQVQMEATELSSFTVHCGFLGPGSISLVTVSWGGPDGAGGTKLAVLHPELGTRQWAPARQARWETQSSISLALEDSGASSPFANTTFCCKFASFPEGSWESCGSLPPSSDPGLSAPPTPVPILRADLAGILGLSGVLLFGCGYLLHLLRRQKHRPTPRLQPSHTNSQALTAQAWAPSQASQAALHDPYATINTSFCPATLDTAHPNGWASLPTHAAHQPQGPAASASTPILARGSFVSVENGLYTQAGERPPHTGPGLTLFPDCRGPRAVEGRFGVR

human PVRIG on cells [26] = biological target: T7, human PVRIG on cells; test: FACS on Jurkat cells pre-incubated with CHA.7.538.1.2 (unconjugated)
Source text: as §6

human PVRIG on cells [27] = biological target: T7, human PVRIG on cells; test: FACS KD, cell type 'HEK293 hPVRIG' (table beside the curve, column 'FACS KD (nM)')
human PVRIG on cells [28] = biological target: T7, human PVRIG on cells; test: FACS on Jurkat cells pre-incubated with CHA.7.518.1 (unconjugated)
Source text: as §6

[29] = biological target: T8, cynomolgus PVRIG on cells; test: flow cytometry titration, expi cPVRIG cells
Procedure: These cells were cultured in DMEM+10% fetal calf serum+glutamax. expi cPVRIG transient over-expressing cells were generated by electroporating cPVRIG DNA into parental expi cells using the Neon transfection system. For FACS analysis, expi cPVRIG cells were used between 1-3 days-post transfection. Parental expi cells were harvested from log growth phase. 50,000-100,000 cells of per well of each type were seeded in 96 well plates. […] The titration series were conducted as a 3-fold dilution series. […] Data was acquired using a FACS Canto II or IntelliCyte and analyzed using FlowJo and Prism software.

mPVRL2 HIS = biological target: T9, mPVRL2 HIS (mouse, UniProt P32507 32-351, limits assumed); test: ELISA: soluble PVRL2 HIS titrated on plates coated with mDNAM1-mFc
T9 construct: also called mPVRL2 protein; Soluble PVRL2 HIS protein
T9 sequence (looked up): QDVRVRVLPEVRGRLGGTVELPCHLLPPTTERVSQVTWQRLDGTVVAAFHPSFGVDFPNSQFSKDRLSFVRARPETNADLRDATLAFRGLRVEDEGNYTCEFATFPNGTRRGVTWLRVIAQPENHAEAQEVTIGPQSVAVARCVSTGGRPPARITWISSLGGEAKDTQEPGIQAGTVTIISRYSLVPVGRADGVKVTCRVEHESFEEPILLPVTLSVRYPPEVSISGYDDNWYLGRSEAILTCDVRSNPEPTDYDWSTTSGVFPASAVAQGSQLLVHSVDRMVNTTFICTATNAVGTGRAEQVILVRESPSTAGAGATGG

T5 sequence (ECD with C-terminal His tag, as listed by the source): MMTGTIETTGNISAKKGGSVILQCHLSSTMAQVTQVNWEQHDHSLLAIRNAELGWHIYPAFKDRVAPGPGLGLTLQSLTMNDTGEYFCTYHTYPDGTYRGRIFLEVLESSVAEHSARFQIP

B1: BM26 hIgG4 (antibody, V domains shown)
VH: EVQLQQSGPELVKPGSSVKMSCKASGYTFSSYVMHWVKQKPGQGLEWIGYIDPYNDGAKYNEKFKGKATLTSDKSSSTAYMELSSLTSEDSAVYYCARGGPYGWYFDVWGAGTTVTVSS
VL: DIQMTQSPASLSASVGETVTITCRASEHIYSYLSWYQQKQGKSPQLLVYNAKTLAEGVPSRFSGSGSGTQFSLKINSLQPEDFGTYYCQHHFGSPLTFGAGTTLELKR
notes: benchmark anti-human TIGIT antibody, human IgG4 with S241P; also called BM26-H4; WO2016/028656A1 Clone 3106 as hIgG4
Kd (cyno TIGIT on cells [1]): 1.12 nM
Kd [2]: 0.0112 nM
gMFI of bound PVR-m2aFc at 266 pM mAb (human TIGIT on cells [3]): 719
gMFI of bound PVR-m2aFc at 1.3 nM mAb (human TIGIT on cells [3]): 401
gMFI of bound PVR-m2aFc at 6.7 nM mAb (human TIGIT on cells [3]): 234
binding result (Mouse TIGIT-His): no binding (tested: 92.9 nM mouse TIGIT)
Kd [4]: 0.0241 nM
Kd (human TIGIT on cells [5]): 0.81 nM
Kd (Cyno TIGIT-His [6]): 0.00125 nM
Kd (cyno TIGIT on cells [7]): 4.6 nM
Kd (human TIGIT on cells [8]): 0.93 nM
IC50 (human TIGIT on cells [9]): 0.26 nM
Kd (human TIGIT on cells [10]): 0.44 nM
Kd (cyno TIGIT on cells [11]): 7.5 nM
Kd [12]: 0.0082 nM
Kd (Cyno TIGIT-His [13]): 0.0035 nM
IC50 (human TIGIT on cells [14]): 0.45 nM
Kd (cyno TIGIT on cells [15]): 0.69 nM
Kd (human TIGIT on cells [16]): 0.74 nM
Kd (human TIGIT on cells [17]): 1.4 nM
Kd [18]: 0.004 nM

B2: CHA.7.518.1.H4(S241P) (antibody, human IgG4 S228P, kappa, V domains shown)
VH: QVQLVQSGAEVKKPGASVKVSCKASGYTFTDYNINWVRQAPGQGLEWMGYIYPYIGGSGYAQKFQGRVTMTRDTSTSTVYMELSSLRSEDTAVYYCAREDKTARNAMDYWGQGTLVTVSS
VL: DIQMTQSPSSLSASVGDRVTITCRVSENIYSNLAWYQQKPGKAPKLLIYEATNLAEGVPSRFSGSGSGTDFTLTISSLQPEDFATYYCQHFWGTPYTFGQGTKLEIKR
notes: humanized, human IgG4 with S241P; also called anti-PVRIG
IC50 (read off the curve) (PVRIG Fc [19]): ~6 nM
Kd (human PVRIG on cells [20]): 0.15 nM
Kd (human PVRIG on cells [21]): 0.29 nM
IC50 (human PVRIG on cells [22]): 1.8 nM
% binding relative to maximum signal (human PVRIG on cells [23]): 100%
IC50 (PVRIG Fc [24]): 15 nM
Kd [25]: 0.248 nM
% binding relative to maximum signal (human PVRIG on cells [26]): 7%
Kd (human PVRIG on cells [27]): 0.298 nM
% binding relative to maximum signal (human PVRIG on cells [28]): 14%
Kd [29]: 0.24 nM

B3: DNAM1 Fc (Fc fusion, mouse (prefix m in FIG. 95D), UniProt Q8K4F0 19-254, looked up)
fusion chain: EETLWDTTVRLSETMTLECVYPLTHNLTQVEWTKNTGTKTVSIAVYNPNHNMHIESNYLHRVHFLNSTVGFRNMSLSFYNASEADIGIYSCLFHAFPNGPWEKKIKVVWSDSFEIAAPSDSYLSAEPGQDVTLTCQLPRTWPVQQVIWEKVQPHQVDILASCNLSQETRYTSKYLRQTRSNCSQGSMKSILIIPNAMAADSGLYRCRSEAITGKNKSFVIRLIITDGGTNKHFILP
notes: receptor part of an Fc fusion; also called mDNAM1-mFc
binding result (mPVRL2 HIS): binds
